# According to patent US20170096486A1, “AGENTS INHIBITING GRANULIN FOR TREATMENT OF CANCER” (priority 2014, published 2017):
# Tested on: MCF7 cells
# Experiment: Proliferation of MCF7 cells after peptide treatment
# Assay type: cell-based
# Conditions: MCF7 cells (FIG. 5)
molecule,measurement,value
"HB-EGF: peptide mimetic HB-EGF (R&D Systems 259-HE-050) (protein, UniProt Q99075 63-148, looked up) Heparin-binding EGF-like …: DLQEADLDLLRVTLSSKPQALATPNKEEHGKRKKKGKGLGKKRDPCLRKYKDFCIHGECKYVKELRAPSCICHPGYHGERCHGLSL",proliferation after peptide treatment,does not affect proliferation
